{"source": "patent US20230151111A1", "about": "(AKESO BIOPHARMA, published 2023)", "key": {"human PD-1-mFc-biotin": {"target": "human PD-1-mFc-biotin (human, UniProt Q15116 25-170, limits assumed, biotin label, site not stated)", "sequence (Q15116 other isoform, or with tags, fused parts or gaps limits assumed)": "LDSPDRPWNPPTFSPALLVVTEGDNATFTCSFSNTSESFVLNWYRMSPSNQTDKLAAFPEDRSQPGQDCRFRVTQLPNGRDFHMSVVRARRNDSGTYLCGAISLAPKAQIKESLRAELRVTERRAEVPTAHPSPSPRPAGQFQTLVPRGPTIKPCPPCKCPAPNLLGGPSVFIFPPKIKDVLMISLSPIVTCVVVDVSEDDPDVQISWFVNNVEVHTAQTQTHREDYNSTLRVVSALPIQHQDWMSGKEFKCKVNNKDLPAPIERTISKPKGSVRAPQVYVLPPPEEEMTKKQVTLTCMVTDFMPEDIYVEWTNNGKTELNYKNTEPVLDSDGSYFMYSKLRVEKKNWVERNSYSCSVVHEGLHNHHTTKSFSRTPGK", "assay": "competitive ELISA, blocking of PD-1-mFc-biotin binding to coated PD-L1-mFc", "experimental": "After incubation, the microplate was blocked with a PBS solution containing 1% BSA at 37° C. for 2 h. […] The antibody was serially diluted to 7 concentrations in a gradient ratio of 1:3 on a dilution plate with 10 μg/mL as the starting concentration, and a blank control was set. […] Then the mixture after reaction was added to the coated microplate, and the microplate was incubated for at 37° C. for 30 min. After incubation, the plate was washed three times with PBST and dried. SA-HRP (KPL, 14-30-00) working solution was added, and the plate was incubated at 37° C. for 30 min. After incubation, the plate was washed four times and patted dry. Then TMB (Neogen, 308177) was added in the dark for chromogenesis for 5 min, and a stop solution was added to terminate chromogenic reaction. Then the microplate was put into a microplate reader immediately, and the OD value of each well in the microplate was read at 450 nm. The data were analyzed and processed by SoftMax Pro 6.2.1."}, "PD-1-mFc [1]": {"target": "T1, PD-1-mFc (human, UniProt Q15116 25-170, limits assumed)", "T1 construct": "also called human PD-1-mFc", "T1 sequence (Q15116 other isoform, or with tags, fused parts or gaps limits assumed)": "as above", "assay": "BLI (Fortebio), PD1-mFc on AMC sensor, antibody 0.62-50 nM, 30 C", "experimental": "The sample dilution buffer was PBS (0.02% Tween-20, 0.1% BSA, pH 7.4). […] The data were analyzed by 1:1 model fitting to obtain affinity constants."}, "PD-1-mFc [2]": {"target": "T1, PD-1-mFc", "assay": "ELISA, PD-1-mFc coated", "experimental": "Then the microplate coated with antigens was washed once with PBST, and then blocked with a PBS solution containing 1% BSA as blocking solution at 37° C. for 2 h. After blocking, the microplate was washed 3 times with PBST. The microplate containing the test antibodies was incubated at 37° C. for 30 min, and then washed 3 times with PBST. […] The microplate was put into a microplate reader immediately, and the OD value of each well in the microplate was read at 450 nm. The data were analyzed and processed by SoftMax Pro 6.2.1."}}}
{"binder": "14C12H1L1(hG1TM) (antibody, human IgG1, kappa, Humanized anti-PD-1 IgG1 with L234A/L235A/G237A) heavy: not shown light: DIQMTQSPSSMSASVGDRVTFTCRASQDINTYLSWFQQKPGKSPKTLIYRANRLVSGVPSRFSGSGSGQDYTLTISSLQPEDMATYYCLQYDEFPLTFGAGTKLELKRTVAAPSVFIFPPSDEQLKSGTASVVCLLNNFYPREAKVQWKVDNALQSGNSQESVTEQDSKDSTYSLSSTLTLSKADYEKHKVYACEVTHQGLSSPVTKSFNRGEC", "values": [{"measurement": "EC50", "setting": "human PD-1-mFc-biotin", "result": 2230, "unit": "pM"}, {"measurement": "Kd", "setting": "PD-1-mFc [1]", "result": 44.5, "unit": "pM"}, {"measurement": "EC50", "setting": "PD-1-mFc [2]", "result": 31, "unit": "pM"}]}
